In PMC10539301:

Molecular target: ATAD2 Walker B mutant (E532Q), aa 403-1390 (human) (UniProt Q6PL18)
Sequence (Q6PL18 403-1390 E532Q): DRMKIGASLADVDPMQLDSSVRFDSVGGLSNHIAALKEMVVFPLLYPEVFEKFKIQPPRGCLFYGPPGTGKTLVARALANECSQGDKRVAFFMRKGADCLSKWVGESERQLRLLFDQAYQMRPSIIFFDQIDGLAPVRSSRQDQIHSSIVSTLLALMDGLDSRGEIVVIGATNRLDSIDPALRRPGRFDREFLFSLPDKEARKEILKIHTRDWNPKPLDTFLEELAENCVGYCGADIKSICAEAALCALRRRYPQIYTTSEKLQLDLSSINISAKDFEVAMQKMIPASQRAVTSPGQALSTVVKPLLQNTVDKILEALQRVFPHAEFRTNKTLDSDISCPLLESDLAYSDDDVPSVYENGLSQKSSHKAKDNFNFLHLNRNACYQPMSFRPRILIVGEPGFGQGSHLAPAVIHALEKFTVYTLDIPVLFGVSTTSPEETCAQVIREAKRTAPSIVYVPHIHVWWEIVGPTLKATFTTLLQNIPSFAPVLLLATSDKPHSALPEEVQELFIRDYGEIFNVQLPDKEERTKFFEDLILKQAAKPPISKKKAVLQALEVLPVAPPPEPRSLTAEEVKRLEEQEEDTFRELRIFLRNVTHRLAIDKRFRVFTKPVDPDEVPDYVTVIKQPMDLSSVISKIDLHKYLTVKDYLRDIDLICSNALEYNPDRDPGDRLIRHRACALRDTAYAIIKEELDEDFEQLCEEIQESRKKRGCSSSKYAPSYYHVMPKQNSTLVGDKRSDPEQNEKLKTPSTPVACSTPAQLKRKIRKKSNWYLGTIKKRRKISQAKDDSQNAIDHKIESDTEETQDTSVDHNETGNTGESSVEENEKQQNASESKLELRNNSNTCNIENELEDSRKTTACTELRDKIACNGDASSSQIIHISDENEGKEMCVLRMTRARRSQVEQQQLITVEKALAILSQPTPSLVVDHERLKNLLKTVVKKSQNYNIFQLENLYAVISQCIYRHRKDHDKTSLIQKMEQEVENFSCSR

- HS-AFM: increase of the frequency of symmetry breaking of the ATAD2 Walker B hexameric ring (events per ring or per cumulative observation time) with H3/H4: 40%
- HS-AFM: reversibility of symmetry breaking of the ATAD2 Walker B hexameric ring, without and with H3/H4: 30%
Substance: Histone H3/H4 complex (X. laevis, wild type, refolded) (from UniProt P84233 1-136; P62799 1-103)
